Measured values reported in US20210079080A1 (Hoffmann-La Roche, published 2021).

T1: VEGF-121-His (inhouse production) (human, UniProt P15692 207-395)
T1 construct: His-tagged human VEGF-A121 used in the ELISAs and (captured by an anti-His antibody) in SPR; also called hVEGF-A121; his VEGF; not shown: His tag
T1 sequence: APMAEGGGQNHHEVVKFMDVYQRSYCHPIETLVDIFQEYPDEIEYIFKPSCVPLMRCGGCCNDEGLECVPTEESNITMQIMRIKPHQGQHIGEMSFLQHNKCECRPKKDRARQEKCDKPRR

T2: human VEGF-A121 (human, UniProt P15692 207-395)
T2 sequence: T1 sequence

B1: VEGF-0089 Fab fragment (Fab, V domains shown)
VH: EVQLVESGGGLVQPGGSLRLSCAASGFTFTNYAMTWVRQAPGKGLEWVSSIGNGGGIYTYYADSVKGRFTISRDNSKNTLYLQMNSLRAEDTAVYYCAKGDNLFDSWGPGTLVTVSS
VL: DIQMTQSPASLSASVGDRVTITCRASQSIYSSLNWYQQKPGKAPKLLIYASTLQSGVPSRFSGSASGTDFTLTISSLQPEDVATYYCQQYQNFPRTFGQGTKLEIKR
notes: also called antibody VEGF-0089
B2: HF2-5 Fab fragment (Fab, V domains shown)
VH: EVQLVESGGGLVQPGGSLRLSCAASGFMIRSHGMQWVRQAPGKGLEYVAGISSDGSWARHSAAVEGRFTISRDDSKNTAYLQMNSLRAEDTAVYYCARDFSTGYGADSIDAWGQGTLVTVSS
VL: DIQMTQSPSSLSASVGDRVTITCSGGSDSAYGYGWYQQKPGKAPKTLIYWDDKRPSGVPSRFSGSRSGTDFTLTISSLQPEDFATYYCGAWEYSGGVGIFGQGTKVEIKR
notes: Prior art antibody disclosed in EP3006465

What was measured:
[1] = target: T1, VEGF-121-His (inhouse production); experiment: Biacore, Fab stressed 2 w/37° C./pH 7.4
Method: (§1) Antibody samples were formulated in 20 mM His/HisCl, 140 mM NaCl, pH 6.0, and were split into three aliquots: one aliquot was re-buffered into PBS, respectively, and two aliquots were kept in the original formulation. The PBS aliquot and one His/HisCl aliquot were incubated for 2 weeks (2 w) at 40° C. (His/NaCl) or 37° C. (PBS) in 1 mg/ml, the PBS sample was incubated further for total 4 weeks (4 w). The third control aliquot sample was stored at −80° C.

[2] = target: T1, VEGF-121-His (inhouse production); experiment: Biacore, Fab stressed 4 w/37° C./pH 7.4
Method: as §1

[3] = target: T1, VEGF-121-His (inhouse production); experiment: inhibition ELISA: antibody titrated against 0.7 nM VEGF-121-His; blocked partner plate-bound biotinylated VEGF-R2; anti-His POD readout
Method: (§2) Plates were incubated for 1 h at room temperature. […] Plates were incubated for 1 h at room temperature. […] After washing 3 times with 90 μl/well PB ST-buffer, 25 μl/well detection antibody (anti His POD, Bethyl, #A190-114P, 1:12000) in 1×OSEP was added. After incubation for 1 h at room temperature plates were washed 3 times with 90 μl PBST-buffer. 25 μl TMB (Roche, #11 835 033 001) was added to all wells simultaneously. After 10 min incubation at room temperature, signals were detected at 370 nm/492 nm on a Tecan Safire 2 Reader.

[4] = target: T1, VEGF-121-His (inhouse production); experiment: SPR (Biacore), hVEGF-A121 captured by anti-His antibody, Fab injected, 25° C
Method: (§3) The surface was regenerated by injecting 10 mM Glycine pH 1.5 for 60s. […] Rate constants were calculated using the Langmuir 1:1 binding model within the Biacore® Evaluation software.
(§4) The affinity of the antibodies was determined by SPR using the same methods as described in Example 2. All Fab fragments of antibodies of the invention as listed in table 1 and table 5 were tested.

[5] = target: T1, VEGF-121-His (inhouse production); experiment: direct ELISA on plate-coated VEGF-121-His
Method: After washing 3 times with 90 μl/well PBST-buffer (bidest water, 10×PBS Roche #11666789001+0.1% Tween® 20) blocking buffer (bidest water, 10×PBS Roche #11666789001+2% Bovine Serum Albumin Fraction V, fatty acid free, Roche, #10735078001+0.05% Tween® 20) was added 90 μl/well and incubated for 1 h at room temperature. […] After incubation for 1 h at room temperature, plates were again washed 3 times with 90 μl/well PBST-buffer. […] After washing 3 times with 90 μl A PBST-buffer, 25 μl TMB (Roche, #11 835 033 001) was added to each well. After 3 min incubation at RT, signals were detected at 370 nm/492 nm on a Tecan Safire 2 Reader.

[6] = target: T1, VEGF-121-His (inhouse production); experiment: SPR (Biacore), hVEGF-A121 captured by anti-His antibody, Fab injected, 25° C; remark: listed apart in the source
Method: as §3
(§5) The affinity of the antibodies was determined by SPR using the same methods as described in Example 2. All Fab fragments as listed in table 1 and table 2 were tested.

[7] = target: T1, VEGF-121-His (inhouse production); experiment: inhibition ELISA: antibody titrated against 0.4 nM VEGF-121-His; blocked partner plate-bound biotinylated VEGF-R2; anti-His POD readout
[8] = target: T1, VEGF-121-His (inhouse production); experiment: SPR (Biacore), hVEGF-A121 captured by anti-His antibody, Fab injected, 37° C
Method: as §3, §4

[9] = target: T1, VEGF-121-His (inhouse production); experiment: as above; remark: listed apart in the source
Method: as §3, §5

human VEGF-A121 = target: T2, human VEGF-A121; experiment: cell-based or functional assay
[10] = target: T1, VEGF-121-His (inhouse production); experiment: inhibition ELISA: antibody titrated against 0.7 nM VEGF-121-His; blocked partner plate-bound biotinylated VEGF-R2; anti-His POD readout; remark: listed apart in the source
Method: as §2

[11] = target: T1, VEGF-121-His (inhouse production); experiment: Biacore, Fab stressed 2 w/40° C./pH 6.0
Method: as §1

[12] = target: T1, VEGF-121-His (inhouse production); experiment: inhibition ELISA: antibody titrated against 0.7 nM VEGF-121-His; blocked partner plate-bound biotinylated VEGF-R2; anti-His POD readout; remark: listed apart in the source
[13] = target: T1, VEGF-121-His (inhouse production); experiment: inhibition ELISA: antibody titrated against 0.7 nM VEGF-121-His; blocked partner plate-bound biotinylated VEGF-R1; anti-His POD readout

VEGF-binding activity after stress (relative active concentration, normalized to unstressed aliquot) [1] | VEGF-binding activity after stress (relative active concentration, normalized to unstressed aliquot) [2] | IC50 (read off the curve) [3] | Kd [4] | EC50 (read off the curve) [5] | Kd [6] | IC50 (read off the curve) [7] | Kd [8] | Kd [9] | IC50 in reporter gene assay (HEK293-NFAT-RE-Luc2P/KDR cells, luminescence, 25 ng/ml VEGF-A121) (human VEGF-A121) | IC50 (read off the curve) [10] | VEGF-binding activity after stress (relative active concentration, normalized to unstressed aliquot) [11] | IC50 (read off the curve) [12] | IC50 (read off the curve) [13] | Binder
102 | 101 | ~10 ng/mL | 143 pM | ~200 pM | 134 pM | ~200 pM | 110 pM | 99 pM | 590 pM | 1000 to 2000 pM | 101 |  |  | B1
 |  |  | 52 pM |  |  |  | 109 pM |  |  |  |  | ~700 pM | ~900 pM | B2
